Article PMC10774645, “Characterization and stabilization of GluLm and its application to deglycosylate dietary flavonoids and lignans” (Applied Microbiology and Biotechnology, 2024)

Legend:
[1] = biological target: T1, GluLm (Limosilactobacillus mucosae, UniProt A0A508YIL6); assay: inhibition of pNPG hydrolysis, p-nitrophenol release at […] nm; format: biochemical; conditions: 100000 µM; free enzyme; 1 mmol L^−1 pNPG; 100 mmol L^−1 sodium phosphate pH 6.5; 37°C; 5 min
T1 construct: gene bglB; full-length, C-terminal poly-His tag (pLATE31), expressed in E. coli BL21(DE3), GraviTrap purified, 81 kDa
T1 sequence (A0A508YIL6 1-735): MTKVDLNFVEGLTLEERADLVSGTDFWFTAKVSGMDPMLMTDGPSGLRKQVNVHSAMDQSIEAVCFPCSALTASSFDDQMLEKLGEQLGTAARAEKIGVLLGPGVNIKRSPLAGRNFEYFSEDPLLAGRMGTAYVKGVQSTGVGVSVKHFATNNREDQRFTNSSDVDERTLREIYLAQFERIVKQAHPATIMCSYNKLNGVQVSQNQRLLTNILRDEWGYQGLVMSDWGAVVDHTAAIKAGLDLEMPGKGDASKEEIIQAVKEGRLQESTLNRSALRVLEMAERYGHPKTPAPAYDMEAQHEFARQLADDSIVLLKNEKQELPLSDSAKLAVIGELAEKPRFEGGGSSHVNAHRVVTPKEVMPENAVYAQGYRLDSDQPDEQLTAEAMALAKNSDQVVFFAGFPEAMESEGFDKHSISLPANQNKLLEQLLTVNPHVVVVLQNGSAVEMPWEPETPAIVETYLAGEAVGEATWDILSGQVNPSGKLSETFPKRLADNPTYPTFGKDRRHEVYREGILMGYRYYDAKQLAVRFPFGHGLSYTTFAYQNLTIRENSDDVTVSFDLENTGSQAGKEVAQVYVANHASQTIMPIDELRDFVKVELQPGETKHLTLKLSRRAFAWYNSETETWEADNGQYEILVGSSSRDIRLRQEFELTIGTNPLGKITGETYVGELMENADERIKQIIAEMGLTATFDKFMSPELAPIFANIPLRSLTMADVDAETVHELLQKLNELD

[2] = substrate: C[C@@H]1O[C@@H](Oc2ccc([N+](=O)[O-])cc2)[C@@H](O)[C@H](O)[C@@H]1O; assay: purified protein; format: biochemical, Limosilactobacillus mucosae; conditions: free enzyme; 0.1 to 10 mmol L^−1 substrate; pH and temperature not restated for kinetics
[3] = substrate: O=[N+]([O-])c1ccc(O[C@@H]2OC[C@@H](O)[C@H](O)[C@H]2O)cc1; assay: purified protein; format: biochemical, Limosilactobacillus mucosae; conditions: free enzyme; 0.1 to 10 mmol L^−1 substrate; pH and temperature not restated for kinetics
[4] = substrate: O=[N+]([O-])c1ccc(O[C@@H]2O[C@H](CO)[C@@H](O)[C@H](O)[C@H]2O)cc1; assay: purified protein; format: biochemical, Limosilactobacillus mucosae; conditions: free enzyme; 0.1 to 10 mmol L^−1 substrate; pH and temperature not restated for kinetics
[5] = substrate: O=[N+]([O-])c1ccc(O[C@@H]2O[C@H](CO)[C@H](O)[C@H](O)[C@H]2O)cc1; assay: purified protein; format: biochemical, Limosilactobacillus mucosae; conditions: free enzyme; 0.1 to 10 mmol L^−1 substrate; pH and temperature not restated for kinetics
[6] = substrate: C[C@H]1O[C@@H](Oc2ccc([N+](=O)[O-])cc2)[C@H](O)[C@@H](O)[C@H]1O; assay: purified protein; format: biochemical, Limosilactobacillus mucosae; conditions: free enzyme; 0.1 to 10 mmol L^−1 substrate; pH and temperature not restated for kinetics

## OC[C@H]1OC(O)[C@H](O)[C@@H](O)[C@@H]1O (stereo partly drawn) [glucose]
[1]
  Relative activity (%): 48.3 ± 5.7%

B1: GluLm (Limosilactobacillus mucosae) (protein)
chain: MTKVDLNFVEGLTLEERADLVSGTDFWFTAKVSGMDPMLMTDGPSGLRKQVNVHSAMDQSIEAVCFPCSALTASSFDDQMLEKLGEQLGTAARAEKIGVLLGPGVNIKRSPLAGRNFEYFSEDPLLAGRMGTAYVKGVQSTGVGVSVKHFATNNREDQRFTNSSDVDERTLREIYLAQFERIVKQAHPATIMCSYNKLNGVQVSQNQRLLTNILRDEWGYQGLVMSDWGAVVDHTAAIKAGLDLEMPGKGDASKEEIIQAVKEGRLQESTLNRSALRVLEMAERYGHPKTPAPAYDMEAQHEFARQLADDSIVLLKNEKQELPLSDSAKLAVIGELAEKPRFEGGGSSHVNAHRVVTPKEVMPENAVYAQGYRLDSDQPDEQLTAEAMALAKNSDQVVFFAGFPEAMESEGFDKHSISLPANQNKLLEQLLTVNPHVVVVLQNGSAVEMPWEPETPAIVETYLAGEAVGEATWDILSGQVNPSGKLSETFPKRLADNPTYPTFGKDRRHEVYREGILMGYRYYDAKQLAVRFPFGHGLSYTTFAYQNLTIRENSDDVTVSFDLENTGSQAGKEVAQVYVANHASQTIMPIDELRDFVKVELQPGETKHLTLKLSRRAFAWYNSETETWEADNGQYEILVGSSSRDIRLRQEFELTIGTNPLGKITGETYVGELMENADERIKQIIAEMGLTATFDKFMSPELAPIFANIPLRSLTMADVDAETVHELLQKLNELD
notes: full-length, C-terminal poly-His tag (pLATE31), expressed in E. coli BL21(DE3), GraviTrap purified, 81 kDa
[2]
  Km: 2820 ± 240 µM
  Vmax: 0.06 µmol/min
  kcat: 7.8 s⁻¹
  kcat/Km: 2700 M⁻¹ s⁻¹
[3]
  Km: 760 ± 50 µM
  Vmax: 4.07 µmol/min
  kcat: 552 s⁻¹
  kcat/Km: 729000 M⁻¹ s⁻¹
[4]
  Km: 100 ± 10 µM
  Vmax: 33.8 µmol/min
  kcat: 9120 s⁻¹
  kcat/Km: 8.66e+07 M⁻¹ s⁻¹
[5]
  Km: 2810 ± 180 µM
  Vmax: 0.86 µmol/min
  kcat: 117 s⁻¹
  kcat/Km: 41900 M⁻¹ s⁻¹
[6]
  Km: 1030 ± 40 µM
  Vmax: 1.64 µmol/min
  kcat: 223 s⁻¹
  kcat/Km: 218000 M⁻¹ s⁻¹
